This is an account of results in article PMC2660596.

In this assay the target is Bacillus thuringiensis Cry11Ba toxin (Bacillus thuringiensis) (UniProt Q45730). Kind of assay: ELISA. (In general: In an ELISA, binding on a coated surface is turned into a signal by an enzyme label.)

Substance “APN2t, truncated 70-kDa AgAPN2 peptide (residues 228 to 843) (domain or fragment)” returned a Kd of 6.4 nM.

Broadly, the Kd is the concentration at which binding is half-saturated. A lower Kd goes with higher affinity.
